How the values were obtained:
[1] = target: CD3 on T cells of human PBMC (human); test: cell-based or functional assay
[2] = target: EGFR (epidermal growth factor receptor) on human glioma U87 cells (human) (UniProt P00533); test: cell-based or functional assay

B1: EGFR-CD3-EGFR MsAb (bispecific antibody, part only; not given: linkers and His tag, not shown: small tags and cut ends)
chain, part: ESGGGLTQPGGSLRLSCAASGMSTGMWHRPTPGRERELIALKAPWPGTAPSSWRFTISRDNASNTVYLQMANLNTEDTAVYFCHAGGLLEWELLVVAASWGQGTVSSQVKLEESGSELVQPGGPLRLSCAASANIFSRTEDDWIWYRQAPGKQRAFVAWITGLSTKIGRFTISVDKSKGTIYLQMNALKPEDTAVYYANAAEHASKVVEVSTSWGQGTVVTVSSESGGGLTQPGGSLRLSCAASGMSTGMWHRPTPGRERELIALKAPWPGTAPSSWRFTISRDNASNTVYLQMANLNTEDTAVYFCHAGGLLEWELLVVAASWGQGTVSS
细胞杀伤率 (killing of GFP-labelled U87 cells by human PBMC, effector:target 5:1, 50 ng/mL antibody, 24 h, 7-AAD, high-content imaging) [1]: > 80%
细胞杀伤率 (killing of GFP-labelled U87 cells by human PBMC, effector:target 5:1, 50 ng/mL antibody, 24 h, 7-AAD, high-content imaging) [2]: > 80%

Reference: CN115029318A
